Measured values: the Human Domainome abundance scans (Beltran et al. 2025)
± gives the uncertainty stated by the source.

B1: Far upstream element-binding protein 3, residues 75 to 150; numbered along this chain, Q96I24 (parent)
chain: RTVITEEFKVPDKMVGFIIGRGGEQISRIQAESGCKIQIASESSGIPERPCVLTGTPESIEQAKRLLGQIVDRCRN

Variants of: B1
Test: abundance fitness (aPCA) (normalised: wild type 0, dead -1); higher = more abundant; growth selection in yeast, the domain comes from the species named
Conditions: Homo sapiens

Variant | abundance fitness
P57Y | -0.133 ± 0.1
P57N | -0.1 ± 0.082
P57T | 0.006 ± 0.048
P57I | -0.131 ± 0.1
P57R | -0.013 ± 0.031
P57D | -0.182 ± 0.055
P57A | -0.013 ± 0.038
P57V | -0.06 ± 0.037
P57Q | -0.023 ± 0.049
P57K | -0.009 ± 0.056
P57L | -0.112 ± 0.04
P57F | -0.103 ± 0.081
P57H | -0.096 ± 0.08
P57E | -0.045 ± 0.045
P57S | -0.109 ± 0.042
P57C | -0.143 ± 0.054
P57G | -0.113 ± 0.032
P57W | -0.073 ± 0.04
P57M | -0.111 ± 0.057
E58V | -0.107 ± 0.036
E58A | -0.025 ± 0.04
E58L | -0.17 ± 0.038
E58S | -0.05 ± 0.039
E58D | -0.054 ± 0.062

Variant | abundance fitness
E58H | -0.226 ± 0.087
E58I | -0.256 ± 0.082
E58K | 0.045 ± 0.073
E58R | -0.086 ± 0.031
E58G | -0.047 ± 0.03
E58W | -0.161 ± 0.04
E58F | -0.124 ± 0.086
E58N | -0.091 ± 0.093
E58M | -0.128 ± 0.051
E58Q | -0.066 ± 0.044
E58T | -0.003 ± 0.048
E58P | -0.108 ± 0.046
G55D | -0.905 ± 0.077
G55V | -1.38 ± 0.066
G55T | -1.09 ± 0.078
G55S | -0.827 ± 0.045
G55Y | -1.28 ± 0.17
G55L | -1.39 ± 0.085
G55A | -0.855 ± 0.04
G55R | -1.07 ± 0.041
G55W | -1.34 ± 0.076
G55M | -1.24 ± 0.1
G55H | -1.22 ± 0.14
G55K | -0.972 ± 0.063

Variant | abundance fitness
G55Q | -1.18 ± 0.083
G55I | -1.12 ± 0.2
G55N | -0.989 ± 0.1
G55F | -1.17 ± 0.16
R65S | -0.026 ± 0.035
R65V | -0.006 ± 0.029
R65F | 0.017 ± 0.058
R65Q | -0.004 ± 0.04
R65N | 0.013 ± 0.059
R65I | 0.057 ± 0.067
R65K | 0.012 ± 0.044
R65D | -0.031 ± 0.057
R65C | -0.092 ± 0.043
R65E | 0.013 ± 0.034
R65W | -0.069 ± 0.029
R65G | -0.053 ± 0.026
R65A | -0.031 ± 0.033
R65Y | -0.046 ± 0.052
R65T | -0.014 ± 0.047
R65L | -0.017 ± 0.03
C51A | -0.075 ± 0.036
C51P | -0.671 ± 0.066
C51N | -0.634 ± 0.091
C51H | -0.475 ± 0.092

Variant | abundance fitness
C51S | -0.366 ± 0.04
C51F | -0.009 ± 0.061
C51L | -0.062 ± 0.035
C51T | -0.108 ± 0.043
C51W | -0.147 ± 0.034
C51D | -0.633 ± 0.067
C51Y | -0.311 ± 0.065
C51R | -0.926 ± 0.042
C51E | -0.924 ± 0.06
C51M | -0.068 ± 0.043
C51G | -0.206 ± 0.028
C51Q | -0.688 ± 0.066
C51V | -0.009 ± 0.033
G68L | -0.046 ± 0.032
G68C | -0.066 ± 0.048
G68F | -0.17 ± 0.058
G68I | -0.092 ± 0.061
G68A | -0.066 ± 0.033
G68E | -0.026 ± 0.038
G68H | -0.066 ± 0.071
G68D | -0.001 ± 0.048
G68N | -0.043 ± 0.069
G68M | 0.001 ± 0.044
V52S | -0.005 ± 0.036

Variant | abundance fitness
V52Y | -0.115 ± 0.056
V52Q | 0.043 ± 0.043
V52I | -0.034 ± 0.057
V52T | -0.044 ± 0.038
V52A | -0.029 ± 0.033
V52H | -0.064 ± 0.061
V52C | -0.093 ± 0.051
V52E | -0.073 ± 0.037
V52P | -0.931 ± 0.069
V52D | -0.16 ± 0.049
V52R | -0.072 ± 0.029
V52M | -0.039 ± 0.046
V52L | -0.023 ± 0.033
V52N | -0.133 ± 0.056
V52F | -0.107 ± 0.061
P50S | -0.046 ± 0.031
P50A | -0.042 ± 0.031
P50N | 0.01 ± 0.052
P50F | -0.119 ± 0.052
P50D | -0.079 ± 0.045
P50R | -0.06 ± 0.026
P50T | -0.053 ± 0.035
P50C | -0.054 ± 0.047
P50H | -0.04 ± 0.05

Variant | abundance fitness
P50L | -0.043 ± 0.03
P50K | -0.029 ± 0.036
P50V | -0.031 ± 0.03
P50G | -0.014 ± 0.026
P50I | 0.004 ± 0.05
P50M | -0.04 ± 0.038
P50E | -0.01 ± 0.031
P50Y | -0.113 ± 0.048
Q62D | -0.005 ± 0.04
Q62V | -0.008 ± 0.033
Q62C | -0.011 ± 0.033
Q62K | -0.019 ± 0.043
Q62I | -0.043 ± 0.037
Q62R | -0.043 ± 0.03
Q62H | -0.011 ± 0.037
Q62G | -0.055 ± 0.035
Q62F | -0.043 ± 0.038
Q62A | -0.01 ± 0.033
Q62W | -0.102 ± 0.044
Q62S | -0.023 ± 0.03
Q62Y | -0.096 ± 0.044
Q62L | -0.044 ± 0.03
Q62M | -0.023 ± 0.042
Q62N | -0.041 ± 0.038

Variant | abundance fitness
L66H | -0.148 ± 0.052
L66Y | -0.078 ± 0.06
L66Q | -0.072 ± 0.044
L66G | -0.134 ± 0.027
L66R | -0.061 ± 0.028
L66A | -0.036 ± 0.033
L66W | -0.17 ± 0.033
L66P | -0.899 ± 0.07
L66K | -0.066 ± 0.046
L66N | -0.221 ± 0.062
L66M | -0.038 ± 0.04
L66V | -0.115 ± 0.028
L66F | -0.16 ± 0.07
L66I | -0.056 ± 0.074
L66D | -0.123 ± 0.049
L66S | -0.064 ± 0.033
L66E | -0.079 ± 0.034
L66C | -0.114 ± 0.051
S59T | -0.119 ± 0.046
S59G | -0.065 ± 0.028
S59L | -0.797 ± 0.047
S59F | -1.1 ± 0.26
S59D | -0.1 ± 0.058
